From US9200040B2, “Specific binding agents of human angiopoietin-2” (Amgen Inc., priority 2001, dated 2015) come the findings set out here.

Entries after “also recorded” stand apart in the source; their conditions may differ. Where two headings read alike, the source gives them in different places. Primed or numbered codes have the meaning given here. Where no end group is shown, it is not given here. [ ]: non-standard residue; d: D form. Fc(5) = non-antigen-binding fragment of an antibody (vehicle) fused to the peptide

The subject of one data set is A431 tumor. The conditions noted are these: p<0.0001.
For data set [1], the system named is VEGF-induced angiogenesis. The experiment in a line: Corneal angiogenesis model. In kind it is in vivo. On the procedure: Ang-2 peptibody CON4(C) was evaluated in the corneal model of angiogenesis in rats. Angiogenesis was induced by implanting a VEGF- (or BSA control) soaked nylon disc into the corneal stroma (n=8/group). Peptibody TN8CON4-C was administered by sub-cutaneous injection at 1.0 or 0.1 mg/rat/day for seven days. Two other groups of animals were treated with the same dose of negative control peptibody 4883. All groups were pre-treated with a single loading dose of either 3.0 or 0.3 mg that was three times the maintenance dose of 1.0 or 0.1 mg (see figure). After seven days of treatment, two vascular endpoints were determined from each digital image of the rat cornea: the number of vessels intersecting the mid-point between the disc and the limbus, and the blood vessel area.

Another data set addresses T1, huAng2 (Homo sapiens, UniProt O15123).
T1 construct: purchased R&D Systems BNO12103A
T1 sequence (O15123 68-496 limits assumed): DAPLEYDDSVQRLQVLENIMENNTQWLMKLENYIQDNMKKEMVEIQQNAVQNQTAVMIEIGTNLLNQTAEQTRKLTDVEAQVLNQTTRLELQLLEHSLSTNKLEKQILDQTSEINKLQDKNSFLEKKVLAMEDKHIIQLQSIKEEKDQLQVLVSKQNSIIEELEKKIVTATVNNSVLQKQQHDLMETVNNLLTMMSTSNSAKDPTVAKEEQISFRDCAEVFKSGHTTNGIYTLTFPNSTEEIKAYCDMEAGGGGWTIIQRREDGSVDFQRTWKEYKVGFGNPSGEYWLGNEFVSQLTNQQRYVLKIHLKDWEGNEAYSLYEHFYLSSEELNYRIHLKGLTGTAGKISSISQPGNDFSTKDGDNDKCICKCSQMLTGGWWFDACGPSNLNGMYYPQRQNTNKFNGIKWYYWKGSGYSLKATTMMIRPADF
In words: BIAcore binding to huAng2 (Example 9). The conditions noted are these: Table 8. As to the method:
Six samples of anti-Ang2 peptibodies were tested for their binding activity to huAng2 (R&D Systems, BNO12103A) on BIAcore. Protein G was immobilized to a CM5 chip according to the standard amine-coupling protocol (BIAcore Inc.), and the peptibodies were then injected over a protein G surface for capturing (RL˜100 Ru). To test binding between hAng2 and the captured peptibody, 0.3 nM to 40 nM of huAng2 was injected over the captured peptibody surfaces, and binding sensorgrams were analyzed using BIAevaluation 3.0 (BIAcore Inc.).
Background: In SPR one partner is held on a chip, and binding of the other changes the refractive index at the surface.

The next data set concerns the target T2, mAng-2 (Mus musculus, UniProt O35608).
T2 construct: made in house
T2 sequence (O35608 19-496): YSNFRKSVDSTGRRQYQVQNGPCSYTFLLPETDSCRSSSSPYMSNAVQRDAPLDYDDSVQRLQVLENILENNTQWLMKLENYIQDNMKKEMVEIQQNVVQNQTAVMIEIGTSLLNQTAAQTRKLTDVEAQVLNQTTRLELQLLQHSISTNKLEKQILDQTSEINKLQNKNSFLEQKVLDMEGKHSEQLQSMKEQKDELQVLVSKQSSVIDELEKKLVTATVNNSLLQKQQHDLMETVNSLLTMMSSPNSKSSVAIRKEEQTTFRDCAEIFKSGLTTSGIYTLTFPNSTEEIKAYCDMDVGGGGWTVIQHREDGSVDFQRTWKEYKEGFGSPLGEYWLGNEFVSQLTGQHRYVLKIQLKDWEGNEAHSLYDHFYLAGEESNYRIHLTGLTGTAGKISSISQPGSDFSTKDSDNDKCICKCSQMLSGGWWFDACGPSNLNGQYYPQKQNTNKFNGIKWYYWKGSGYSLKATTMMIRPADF
In words: Affinity BIAcore (Example 2). In kind it is binding, murine. The conditions noted are these: Table 6. On the procedure:
(§1) Binding assays were carried out by first capturing about 100 Ru of each candidate anti-Ang-2 peptibody to the immobilized Protein G, after which various concentrations (0-100 nM) of huAng-2 or mAng-2 were injected over the bound antibody surface at a flow rate of 50 μl/min for 3 minutes. Peptibody binding kinetic parameters including ka (association rate constant), kd (dissociation rate constant) and KD (dissociation equilibrium constant) were determined using the BIA evaluation 3.1 computer program (Biacore, Inc.). Lower dissociation equilibrium constants indicated greater affinity of the peptibody for Ang-2.

Data set [2] addresses T3, hAng-1 (Homo sapiens, UniProt Q15389).
T3 sequence (Q15389 16-498): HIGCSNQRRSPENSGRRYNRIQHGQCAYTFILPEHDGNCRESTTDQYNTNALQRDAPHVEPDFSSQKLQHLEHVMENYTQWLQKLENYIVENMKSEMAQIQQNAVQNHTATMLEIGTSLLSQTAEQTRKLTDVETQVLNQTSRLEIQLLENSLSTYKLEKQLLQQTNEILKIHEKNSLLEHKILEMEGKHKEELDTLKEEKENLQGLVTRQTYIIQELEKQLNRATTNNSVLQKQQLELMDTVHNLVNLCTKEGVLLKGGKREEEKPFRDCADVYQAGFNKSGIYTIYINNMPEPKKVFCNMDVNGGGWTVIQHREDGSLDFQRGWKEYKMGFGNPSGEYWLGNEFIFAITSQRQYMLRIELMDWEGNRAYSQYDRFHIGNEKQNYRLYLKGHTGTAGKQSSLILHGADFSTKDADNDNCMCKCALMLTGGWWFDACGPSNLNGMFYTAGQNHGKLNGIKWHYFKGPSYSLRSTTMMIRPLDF
In words: Neutralization ELISA (Example 2). The conditions noted are these: Table 5; about 1 nM Tie-2-Fc. In kind it is binding. (In an ELISA, binding on a coated surface is turned into a signal by an enzyme label.)

The target of data set [3] is T3, hAng-1. The experiment in a line: Affinity ELISA. The conditions noted are these: Table 5. In kind it is binding.
A further data set has as its target T4, hAng-2 (Homo sapiens, UniProt O15123).
T4 construct: conditioned media of human 293T cells transfected with full length human Ang-2 DNA; made in house; host or cells: conditioned media
T4 sequence (O15123 19-496): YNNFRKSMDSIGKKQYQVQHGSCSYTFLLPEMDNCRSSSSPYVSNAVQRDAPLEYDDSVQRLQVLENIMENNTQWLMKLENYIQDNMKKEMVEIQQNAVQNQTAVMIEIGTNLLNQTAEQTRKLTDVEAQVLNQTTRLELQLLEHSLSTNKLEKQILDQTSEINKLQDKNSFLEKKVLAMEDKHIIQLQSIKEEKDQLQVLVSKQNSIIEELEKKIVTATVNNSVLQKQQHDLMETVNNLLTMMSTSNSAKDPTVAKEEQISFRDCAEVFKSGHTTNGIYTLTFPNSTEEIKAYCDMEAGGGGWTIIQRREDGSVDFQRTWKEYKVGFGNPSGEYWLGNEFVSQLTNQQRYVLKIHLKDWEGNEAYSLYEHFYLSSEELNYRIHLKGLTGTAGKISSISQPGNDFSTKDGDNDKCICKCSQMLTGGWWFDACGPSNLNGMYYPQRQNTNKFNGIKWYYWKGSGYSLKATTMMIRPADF
The experiment in a line: Affinity BIAcore (Example 2). In kind it is binding. The conditions noted are these: Table 6. As to the method: as §1

The subject of the next data set is Colo-205 tumor. As to the method: Female nude mice were injected subcutaneously with 2×10^6 Colo-205 cells plus Matrigel (2:1) on study day 0. At day 3, the Ang-2 peptibodies L1-7-N, L1-21-N, Con4-C, and 2×Con4-C were administered subcutaneously at the dose of […], twice a week.
Female nude mice were injected subcutaneously with 2×10^6 Colo-205 cells plus Matrigel (2:1) on study day 0.
Female nude mice were injected subcutaneously with 2×10^6 Colo-205 cells plus Matrigel (2:1) on study day 0. At day 3, Ang-2 peptibody 2×Con4-C or control peptibody were administered subcutaneously at the dose of 350 μg/day. Tumors from groups treated with control peptibody (as described in Table 5) were harvested either at Day 14 (size-matched control) or Day 18 (time-matched control). Tumors from 2×Con4(C) treated group were then harvested at Day 18. Tumor volumes were recorded at regular intervals, as shown.
Female nude mice were injected subcutaneously with 2×10^6 Colo-205 cells plus Matrigel (2:1) on study day 0. Treatment with 350 μg/mouse, s.c. twice a week, of the Ang-2 peptibody 2×Con4-C, or equivalent control peptibody started either at study day 3, 10 or 15. […] The results are set forth in FIG. 8 (body weights not shown).
Female nude mice were injected subcutaneously with 2×10^6 Colo-205 cells plus Matrigel (2:1) on study day 0. At study day 14, treatments were started with a) 350 μg/mouse, s.c. twice a week, of the Ang-2 peptibody 2×Con4-C, b) 20 mg/kg qwx3 i.p. of taxotere, or c) a combination of both.
Female nude mice were injected subcutaneously with 2×10^6 Colo-205 cells plus Matrigel (2:1) on study day 0. At study day 14 started treatments with a) 350 μg/mouse, s.c. twice a week, of the Ang-2 peptibody 2×Con4-C, b) 50 mg/kg qdx5 i.p. of 5-FU, or c) a combination of both.

Procedure for A431 tumor: The doses of peptibody used were 1000, 200, 40 and 8 ug/mouse/day. A total of 20 doses was given to all animals. Tumor volumes and body weights were recorded three times/week. At the end of the study, animals were sacrificed, and their sera were collected for measuring peptibody levels by ELISA. Tumors and a panel of normal tissues were collected from all groups.
Female nude mice were injected subcutaneously with 1×10^7 A431 cells on study day 0.

For “M-Fc-GGGGGAQQEECEWDPWTCEHMLE (M[Fc]GGGGGAQQEECEWDPWTCEHMLE; cysteine pairing not given here) [Con4 (C)]”, the “tumor growth vs. vehicle control” value with A431 tumor (s.c. once per day, 1000, 200, 40 and 8 ug/mouse/day, 20 doses) is given as “inhibited tumor growth”. Also, in data set [1] (1.0 or 0.1 mg/rat/day s.c. for seven days), the “overt toxicity based on body weights” value is given as “no evidence of overt toxicity”. Also, the “VEGF-induced angiogenesis (number of vessels, blood vessel area)” value in data set [1] (s.c. 1.0 or 0.1 mg/rat/day for seven days after loading dose 3.0 or 0.3 mg, p<0.04) is listed as “significantly inhibited VEGF-induced angiogenesis in a dose-dependent manner”. In addition, in the data set with huAng2, the ka was 530000 M⁻¹ s⁻¹ and the kd was 0.0002 s⁻¹.

In the data set with mAng-2, “MGAQQEECEWDPWTCEHMLEGGGGG-Fc (MGAQQEECEWDPWTCEHMLEGGGGG-{Fc(5)}; not fully specified (bridges); printed as MGAQQEECEWDPWTCEHMLEGGGGG-Fc; cysteine pairing not given here) [Con4 (N)]” yielded a mAng-2 ka of 730000 M⁻¹ s⁻¹ and a mAng-2 kd of 0.00044 s⁻¹. Moreover, in the data set with hAng-1 [2], the “hAng-1 IC 50” value is recorded as “No In-”. Also, the “hAng-1 EC 50” value with hAng-1 [3] is given as “No”. In the data set with hAng-2, this molecule registered a hAng-2 ka of 330000 M⁻¹ s⁻¹ and a hAng-2 kd of 0.00022 s⁻¹.

B1: M-Fc-GGGGGAQQEECEWDPWTCEHMGSGSATGGSGSTASSGSGSATHQEECEWDPWTCEHMLE (protein)
chain: M[Fc]GGGGGAQQEECEWDPWTCEHMGSGSATGGSGSTASSGSGSATHQEECEWDPWTCEHMLE
As for B1, the “tumor growth vs. vehicle control and control peptibody” value with A431 tumor (200 μg/mouse/day s.c. from day 3) is listed as “Significant differences in tumor growth”; in the data set on Colo-205 tumor (Example 15: s.c. 14, 2.8 and 0.56 μg/mouse twice a week, p=0.003 intermediate dose, p<0.0001 high dose) it was “Significant differences in tumor growth were observed between the two higher doses”. Besides, the body weights result in the data set on Colo-205 tumor (Example 15), with Colo-205 tumor (Example 17) and in the data set on Colo-205 tumor (Example 19a) was “no significant effect on body weights” in each case. Besides, the body weight result in the data set on Colo-205 tumor (Example 16) is given as “no significant effect on body weight”. Also, the “tumor growth vs. time-matched control group” value in the data set with Colo-205 tumor (Example 16: s.c. 350 μg/day from day 3, harvested Day 18, p=0.0154) is given as “Significant differences in tumor growth”. Also, the “tumor growth vs. vehicle control” value is “capable of inhibiting Colo205 tumor growth irrespective of when dosing begins; also recorded: Significant differences in tumor growth” with Colo-205 tumor (Example 17: 350 μg/mouse s.c. twice a week started at study day 3, 10 or 15, p=0.089 day 15 group, p<0.0001 day 3 and 10 groups, listed as 2×Con4-C); “Significant differences in tumor growth” with Colo-205 tumor (Example 19a, from study day 14: 2×Con4-C 350 μg/mouse s.c. twice a week, taxotere 20 mg/kg qwx3 i.p., or both, p<0.0001); “Significant differences in tumor growth” with Colo-205 tumor (Example 19b, from study day 14: 2×Con4-C 350 μg/mouse s.c. twice a week, 5-FU 50 mg/kg qdx5 i.p., or both, p<0.0001). For the same molecule, the ka in the data set with huAng2 was found to be 480000 M⁻¹ s⁻¹. The molecule also showed a kd with huAng2 of 0.00016 s⁻¹.
